How the values were obtained:
[1] = target: TW1 (DtxR-Geminin coiled-coil-SpyCatcher) (UniProt P0DJL7); assay: mass photometry; TW1, TW2 or assembled TW at a final concentration of 10 nM on the slide; 25 mM HEPES pH 7.4, 200 mM KCl, 5 mM MgCl2, 0.2 mM EDTA
[2] = target: TW2 (TrpR-Geminin coiled-coil-SpyTag-Geminin coiled-coil-MetJ) (UniProt P0A881); assay: as above

Question: Which stoichiometry N [1] does the source give for “TW1 (DtxR-Geminin coiled-coil-SpyCatcher) (from UniProt P0DJL7 2-121; O75496 110-145)” here?
Answer: 2

Question: For “TW2 (TrpR-Geminin coiled-coil-SpyTag-Geminin coiled-coil-MetJ) (from UniProt P0A881 2-10; O75496 110-145; O75496 110-145; P0A8U6 2-105)”, which stoichiometry N [2] is on record?
Answer: 2

Reference: article PMC13379313
